Measurements published in doi:10.1101/2022.08.08.503162.

Target: His6-tagged luminal domain (ectodomain) of human SR-B1, amino acids 33-444 (human) (UniProt Q8WTV0)
Experiment: MST

- Kd: 2060 nM
Substance: full-length APOA1-Milano expressed in 293F cells (protein A-APOA1-Milano construct) (from UniProt P02647 19-267) (natural protein)
